Results published in patent US20230167415A1.

Key:
[1] = target: WNV IS98-ST1 M-I36F/A43G double mutant virions (E protein at the surface, M protein I36F and A43G) (West Nile virus, strain IS98-ST1); test: indirect non-competitive ELISA, Vero-produced virus captured by polyclonal anti-WNV, HRP-conjugated 4G2
[2] = target: WNV IS98-ST1 M-I36F/A43G double mutant virions (E protein at the surface, M protein I36F and A43G) (West Nile virus, strain IS98-ST1); test: direct ELISA, coated UV-inactivated virus produced in Vero cells

Substance: Monoclonal antibody (mAb) 4G2 anti-Flavivirus E protein
- fold decrease in recognition [1]: 1.2 to 2 fold
- fold decrease in recognition compared to wild-type and M-A43G [2]: 1.2 fold
